According to article PMC10046460, “Phase I Trial of [^99mTc]Tc-maSSS-PEG2-RM26, a Bombesin Analogue Antagonistic to Gastrin-Releasing Peptide Receptors (GRPRs), for SPECT Imaging of GRPR Expression in Malignant Tumors” (Cancers, 2023):
Where two headings read alike, the source gives them in different places. Blank lines part the entries; values can stand above or below the compound they belong to. Square brackets hold non-standard residues; d marks the D form. Peptide text beside a SMILES is read from it. * marks the point of attachment. Sta = CC(C)C[C@H](N)[C@@H](O)CC(=O)O; Mercaptoacetyl = O=C(CS)*; AEEA = NCCOCCOCC(=O)O

Key:
clinical = settings: human, in vivo; for tissue uptake dose at 2 h / tissue uptake dose at 4 h / tissue uptake dose at 6 h / tissue uptake dose at 24 h: iv, 40 ug, total radioactivity, Distribution, SD
Procedure: (§1) Patients were injected with [^99mTc]Tc-maSSS-PEG2-RM26 (40 µg of maSSS-PEG2-RM26 labeled with 640 ± 165 MBq for PCa and 695 ± 120 MBq for BCa patients per injection) as a single intravenous bolus. Imaging was performed using a hybrid system (Symbia Intevo T16), equipped with a dual-head gamma camera and an integrated 16-slice CT scanner. For imaging, a low-energy high-resolution collimator was used. Patients underwent whole-body planar images (anterior and posterior, with a of scan speed 12 cm/min in a 1024 × 256 pixel matrix) and SPECT-CT acquisition (32 projections, 30 s each, in a 128 × 128 pixel matrix) and a low-dose CT (140 kVp, 20 mAs/slice in a 512 × 512 pixel matrix) were performed 2, 4, 6, and 24 h after injection. The images were transferred to a Syngo.via (Siemens) workstation for analysis.
(§2) The geometric means of counts in the regions of interest (ROIs) drawn over organs and the whole body for anterior and posterior projections were calculated for every time point. An ROI for the heart was used to estimate activity concentrations in the blood. Quantification was performed as described previously. Absorbed doses for individual organs, effective doses, and effective dose equivalents were calculated in OLINDA/EXM 1.1 (adult male phantom for PCa and adult female phantom for BCa) using average residence times derived from activity distributions over time fitted to a single exponential using Prism 9.2.0 (GraphPad Software, LLC, Boston, MA, USA).

[1] = biological target: T1, gastrin-releasing peptide receptor (GRPR) (Homo sapiens, UniProt P30550); assay: SPECT/CT imaging of tumor and LN metastasis uptake in BCa patients; assay type: in vivo; settings: for SUVmax, tumor (T) / SUVmax, single LN metastasis (LNM): 2 h post administration, 40 µg iv; for median activity accumulation (SUVmax): 2 h after injection, Me [Q1–Q3]
T1 construct: from tissue; host or cells: primary prostate cancer, primary breast cancer and axillary lymph-node metastases in living patients
Procedure: (§3) A single-center diagnostic phase I open-label exploratory study (ClinicalTrials.gov ID NCT04746638) was conducted at the Cancer Research Institute, Tomsk National Research Medical Center of the Russian Academy of Sciences, and the initial protocol was approved by the Institute’s Scientific Council and Board of Medical Ethics (protocol 14, approved 21 December 2020). Patients (18–70 y) with clinically and radiologically diagnosed (with histological verification) PCa or BCa were included in this study after providing written informed consent. Criteria for inclusion were: the ability to undergo planned diagnostic investigations; patient’s hematological, liver, and renal function test results within the normal limits; and a negative pregnancy test for BCa patients. The exclusion criteria included contraindications to surgical intervention due to severe concomitant pathology; a second malignancy (non-breast or non-prostate); activity/history of autoimmune disease, hepatitis B or C, HIV, or infectious diseases within the preceding 3 months; participation in other clinical studies; and ongoing toxicity over grade 2 from previous standards or investigational therapies. Additionally, for PCa patients, exclusion criteria were androgen deprivation therapy over 3 months, and for BCa patients, exclusion criteria were HER2-positive or non-luminal cancer, in situ T0 and T3-4 tumors, the presence of distant metastases, and history of chemo- and/or hormone-therapy. Six male PCa and seven female BCa patients were included in the study (Figure 1 and Figure 2).
as §1

[2] = biological target: T1, gastrin-releasing peptide receptor (GRPR); assay: SPECT/CT imaging of tumor uptake in PCa patients; assay type: in vivo; settings: for SUVmax: prostate tumor, 40 µg iv; for SUVmax / Ratio SUVmax in Tumor to Background: 2 h post administration
Procedure: as §3, §1

[3] = design: species or system human; settings: in vivo
Procedure: as §2

[4] = tested on: prostate-specific membrane antigen (PSMA); settings: PCa patients; cited from earlier work
Procedure: Prostate and breast cancers are the most common sex-related malignancies, with an increasing incidence in many countries over the past 30 years. Accurate diagnosis and staging of the diseases are important for the prognosis and determination of treatment tactics for these pathologies. […] Many derivatives of this pseudo-peptide were tested clin ...

[5] = in vivo; cited from earlier work
Source text: The biodistribution of [^99mTc]Tc-maSSS-PEG2-RM26 was characterized by the rapid whole body elimination and blood clearance of unbound tracers (Figure 4). This decreases the background caused by the blood-borne activity and creates preconditions for high-contrast imaging. The clinical trial confirmed the major feature of the tracer found in the preclinical studies, a substantial degree of hepatobiliary excretion. The hepatobiliary excretion of [^99mTc]Tc-maSSS-PEG2-RM26 was the highest among other GRPR antagonists tested in clinics and was similar to the excretion of [^99mTc]Tc-RP527, a ...

T1 sequence (P30550 whole entry): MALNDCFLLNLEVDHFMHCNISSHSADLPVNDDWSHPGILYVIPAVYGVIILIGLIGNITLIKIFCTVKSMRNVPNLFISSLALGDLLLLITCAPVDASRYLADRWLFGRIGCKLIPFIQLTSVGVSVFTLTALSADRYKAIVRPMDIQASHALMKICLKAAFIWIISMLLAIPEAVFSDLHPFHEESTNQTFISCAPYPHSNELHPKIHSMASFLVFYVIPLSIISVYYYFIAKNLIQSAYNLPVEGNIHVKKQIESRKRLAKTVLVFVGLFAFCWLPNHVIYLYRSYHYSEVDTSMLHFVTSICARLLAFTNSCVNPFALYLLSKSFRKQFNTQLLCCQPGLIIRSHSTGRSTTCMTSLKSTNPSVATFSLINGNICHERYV

SUVmax, tumor (T) ([1]; BCa patient B1, SPECT/CT): T: 1.41 (2.8 × 2.2)
SUVmax, single LN metastasis (LNM) ([1]; BCa patient B2, SPECT/CT): 1.8
SUVmax, tumor (T) ([1]; BCa patient B2, SPECT/CT): 1.75
SUVmax, single LN metastasis (LNM) ([1]; BCa patient B3, SPECT/CT): 1.8
SUVmax, tumor (T) ([1]; BCa patient B3, SPECT/CT): 0.87
SUVmax, single LN metastasis (LNM) ([1]; BCa patient B4, SPECT/CT): 0.58
SUVmax, tumor (T) ([1]; BCa patient B4, SPECT/CT): 0.57
SUVmax, single LN metastasis (LNM) ([1]; BCa patient B5, SPECT/CT): 1.8
SUVmax, tumor (T) ([1]; BCa patient B5, SPECT/CT): 0.87
SUVmax, tumor (T) ([1]; BCa patient B6, SPECT/CT): T: 0.43 (1.5 × 1.5)
SUVmax, tumor (T) ([1]; BCa patient B7, SPECT/CT): T: 0.50 (1.5 × 1.4)
patients with high uptake in axillary LN ([1]; BCa patients, SPECT/CT): four BCa patients
patients with increased accumulation in the tumor ([1]; BCa patients, SPECT/CT): seven out of seven
median activity accumulation (SUVmax) ([1]; LN metastases in BCa patients): 1.8 [0.58–1.8]
median activity accumulation (SUVmax) ([1]; breast tumors): 0.87 [0.43–1.75]
SUVmax ([2]; PCa patient P2, SPECT/CT): 0.78 (1.7 × 2)
SUVmax ([2]; PCa patient P3, SPECT/CT): 1.21 (4.1 × 2.8)
SUVmax ([2]; PCa patient P4, SPECT/CT): 1.14 (1.8 × 2.0)
Ratio SUVmax in Tumor to Background ([2]; PCa patient P5): No accumulation
SUVmax ([2]; PCa patient P5, SPECT/CT): No accumulation
Ratio SUVmax in Tumor to Background ([2]; PCa patient P6): No accumulation
SUVmax ([2]; PCa patient P6, SPECT/CT): No accumulation
patients with uptake in tumors identified ([2]; PCa patients, SPECT/CT): four out of six
median activity accumulation (SUVmax) ([2]; prostate tumors, 2 h after injection, Me [Q1–Q3]): 1.18 [0.78–1.67]
Compound: CC(C)C[C@H](NC(=O)C[C@H](O)[C@H](CC(C)C)NC(=O)[C@H](Cc1c[nH]cn1)NC(=O)CNC(=O)[C@@H](NC(=O)[C@H](C)NC(=O)[C@H](Cc1c[nH]c2ccccc12)NC(=O)[C@H](CCC(N)=O)NC(=O)[C@@H](Cc1ccccc1)NC(=O)COCCOCCNC(=O)[C@H](CO)NC(=O)[C@H](CO)NC(=O)[C@H](CO)NC(=O)CS)C(C)C)C(N)=O [[^99mTc]Tc-maSSS-PEG2-RM26, metal not drawn] (Mercaptoacetyl-SSS[AEEA][dF]QWAVGH[Sta]L-NH2)
tissue uptake dose at 2 h (clinical; female, Gall bladder): 5 ± 5 %ID
tissue uptake dose at 4 h (clinical; female, Gall bladder): 5 ± 4 %ID
tissue uptake dose at 6 h (clinical; female, Gall bladder): 4 ± 3 %ID
tissue uptake dose at 24 h (clinical; female, Gall bladder): 0.3 ± 0.1 %ID
tissue uptake dose at 2 h (clinical; female, Jejunum): 21 ± 9 %ID
tissue uptake dose at 4 h (clinical; female, Jejunum): 25 ± 17 %ID
tissue uptake dose at 6 h (clinical; female, Jejunum): 13 ± 10 %ID
tissue uptake dose at 24 h (clinical; female, Jejunum): 3 ± 2 %ID
tissue uptake dose at 2 h (clinical; female, Kidney): 5 ± 3 %ID
tissue uptake dose at 4 h (clinical; female, Kidney): 3 ± 3 %ID
tissue uptake dose at 6 h (clinical; female, Kidney): 3 ± 3 %ID
tissue uptake dose at 24 h (clinical; female, Kidney): 5 ± 5 %ID
tissue uptake dose at 2 h (clinical; female, Liver): 6 ± 2 %ID
tissue uptake dose at 4 h (clinical; female, Liver): 3 ± 1 %ID
tissue uptake dose at 6 h (clinical; female, Liver): 3 ± 2 %ID
tissue uptake dose at 24 h (clinical; female, Liver): 2 ± 2 %ID
tissue uptake dose at 2 h (clinical; female, Lower colon): 1.4 ± 0.8 %ID
tissue uptake dose at 4 h (clinical; female, Lower colon): 1 ± 0.9 %ID
tissue uptake dose at 6 h (clinical; female, Lower colon): 0.8 ± 0.7 %ID
tissue uptake dose at 24 h (clinical; female, Lower colon): 20 ± 15 %ID
tissue uptake dose at 2 h (clinical; female, Upper colon): 1.1 ± 0.6 %ID
tissue uptake dose at 4 h (clinical; female, Upper colon): 6 ± 12 %ID
tissue uptake dose at 6 h (clinical; female, Upper colon): 19 ± 17 %ID
tissue uptake dose at 24 h (clinical; female, Upper colon): 15 ± 10 %ID
tissue uptake dose at 2 h (clinical; female, Urinary bladder): 4 ± 7 %ID
tissue uptake dose at 4 h (clinical; female, Urinary bladder): 1 ± 2 %ID
tissue uptake dose at 6 h (clinical; female, Urinary bladder): 0.3 ± 0.3 %ID
tissue uptake dose at 24 h (clinical; female, Urinary bladder): 0.2 ± 0.2 %ID
activity in liver and kidneys (clinical): over 3 % of injected activity
injected activity excreted via bile (clinical): Up to 40%
route of excretion (clinical): predominantly hepatobiliary excretion
tissue uptake dose at 2 h (clinical; male, Gall bladder): 2 ± 2 %ID
tissue uptake dose at 4 h (clinical; male, Gall bladder): 2 ± 2 %ID
tissue uptake dose at 6 h (clinical; male, Gall bladder): 2 ± 2 %ID
tissue uptake dose at 24 h (clinical; male, Gall bladder): 2.2 ± 0.3 %ID
tissue uptake dose at 2 h (clinical; male, Jejunum): 12 ± 12 %ID
tissue uptake dose at 4 h (clinical; male, Jejunum): 9 ± 9 %ID
tissue uptake dose at 6 h (clinical; male, Jejunum): 9 ± 19 %ID
tissue uptake dose at 24 h (clinical; male, Jejunum): 10 ± 1 %ID
tissue uptake dose at 2 h (clinical; male, Kidney): 2.9 ± 0.9 %ID
tissue uptake dose at 4 h (clinical; male, Kidney): 3 ± 3 %ID
tissue uptake dose at 6 h (clinical; male, Kidney): 3 ± 1 %ID
tissue uptake dose at 24 h (clinical; male, Kidney): 2.4 ± 0.9 %ID
tissue uptake dose at 2 h (clinical; male, Liver): 4 ± 2 %ID
tissue uptake dose at 4 h (clinical; male, Liver): 2.2 ± 0.8 %ID
tissue uptake dose at 6 h (clinical; male, Liver): 1.8 ± 0.6 %ID
tissue uptake dose at 24 h (clinical; male, Liver): 2 ± 1 %ID
tissue uptake dose at 2 h (clinical; male, Lower colon): 0.6 ± 0.5 %ID
tissue uptake dose at 4 h (clinical; male, Lower colon): 0.2 ± 0.2 %ID
tissue uptake dose at 6 h (clinical; male, Lower colon): 0.5 ± 0.4 %ID
tissue uptake dose at 24 h (clinical; male, Lower colon): 0.4 ± 0.2 %ID
tissue uptake dose at 2 h (clinical; male, Upper colon): 1.1 ± 1 %ID
tissue uptake dose at 4 h (clinical; male, Upper colon): 8 ± 3 %ID
tissue uptake dose at 6 h (clinical; male, Upper colon): 20 ± 13 %ID
tissue uptake dose at 24 h (clinical; male, Upper colon): 7 ± 8 %ID
tissue uptake dose at 2 h (clinical; male, Urinary bladder): 4 ± 6 %ID
tissue uptake dose at 4 h (clinical; male, Urinary bladder): 2 ± 1 %ID
tissue uptake dose at 6 h (clinical; male, Urinary bladder): 0.6 ± 0.4 %ID
tissue uptake dose at 24 h (clinical; male, Urinary bladder): 0.16 ± 0.07 %ID
radionuclide-associated dose burden per patient [3]: 3-6 mSv/study
Absorbed dose, Ovaries ([3]; iv): 0.018 ± 0.008
Absorbed dose, Testes ([3]; iv): 0.004 ± 0.005
Absorbed dose, Uterus ([3]; iv): 0.020 ± 0.008

Compound: O=C(O)CC[C@H](NC(=O)N[C@@H](CCCCNC(=O)c1ccc([18F])nc1)C(=O)O)C(=O)O [^18F-DCFPyL]
sensitivity in the detection of LN metastases [4]: 40%

Compound: O=C([O-])CN(CCN(CC(=O)[O-])Cc1cc(CCC(=O)NCCCCCC(=O)NCCCC[C@H](NC(=O)N[C@@H](CCC(=O)O)C(=O)O)C(=O)O)ccc1[O-])Cc1cc(CCC(=O)O)ccc1[O-].[68Ga+3].[OH3+] [^68Ga-PSMA]
sensitivity in the detection of LN metastases [4]: 61%

Compound: D-Phe-Gln-Trp-Ala-Val-Sar-His-Sta-Leu-NHEt [[^99mTc]Tc-DB15, ^99mTc-labeled BN antagonist for SPECT, tested in two patients]
route of excretion [5]: Predominantly renal excretion
